# According to patent US20210032299A1 (Eli Lilly, published 2021):
# Substitutions are numbered along the chain they refer to. Starred links: 1 amine or outer side, 2 acyl side, 3 side chain; linkers in the order of their positions; H or OH if unused. Non-standard residues stand in square brackets, D forms with d. Groups on a side chain read outwards from the residue. No end group written: not given here. *: point of attachment. C20 diacid = O=C(O)CCCCCCCCCCCCCCCCCCC(=O)*; γGlu = O=C(O)[C@H](CCC(=O)[*:2])N[*:1]; 4Pal = N[C@@H](Cc1ccncc1)C(=O)O; αMeL = CC(C)C[C@](C)(N)C(=O)O; AEEA = NCCOCCOCC(=O)O; Aib = CC(C)(N)C(=O)O
# T1: human glucose-dependent insulinotropic peptide receptor (human, UniProt P48546 22-466)
# T1 sequence (looked up): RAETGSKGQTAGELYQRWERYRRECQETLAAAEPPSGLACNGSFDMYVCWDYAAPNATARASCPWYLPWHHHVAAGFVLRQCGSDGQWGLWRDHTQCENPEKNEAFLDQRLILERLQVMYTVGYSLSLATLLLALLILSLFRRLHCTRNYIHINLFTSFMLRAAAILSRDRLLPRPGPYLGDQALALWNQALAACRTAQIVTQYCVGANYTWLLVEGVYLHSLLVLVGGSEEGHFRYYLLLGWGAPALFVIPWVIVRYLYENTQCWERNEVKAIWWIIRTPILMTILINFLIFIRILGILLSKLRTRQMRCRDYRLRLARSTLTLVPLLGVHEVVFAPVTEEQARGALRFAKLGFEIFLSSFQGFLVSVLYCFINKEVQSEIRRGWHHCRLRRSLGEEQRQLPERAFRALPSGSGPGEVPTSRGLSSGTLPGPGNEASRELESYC
# B1: Example 1 (peptide)
# peptide: YXEGTFISDYSILLDKKAQXDFVNWLLAQGPSSGAPPPS
# modifications: D-Ala2; K17((2-[2-(2-Amino-ethoxy)-ethoxy]-acetyl)2-(γ-Glu)-CO-(CH2)18-CO2H); Aib20; C-terminal amide
# B2: Example 9 (peptide)
# peptide: B1 peptide with A18H
# modifications: D-Ala2; K17((2-[2-(2-Amino-ethoxy)-ethoxy]-acetyl)2-(γ-Glu)-CO-(CH2)18-CO2H); Aib20; C-terminal amide
# B3: Example 2 (peptide)
# peptide: B1 peptide
# modifications: D-Ala2; K17((2-[2-(2-Amino-ethoxy)-ethoxy]-acetyl)2-(γ-Glu)-CO-(CH2)16-CO2H); Aib20; C-terminal amide
# B4: Example 11 (peptide)
# peptide: Y[dA]EGTFISDYSILLDKK([AEEA-AEEA-γGlu-C20 diacid])AQQDFVNWLLAQGPSSGAPPPS-NH2
# modifications: N-terminus assumed
# SMILES: CC[C@H](C)[C@H](NC(=O)[C@H](CO)NC(=O)[C@H](Cc1ccc(O)cc1)NC(=O)[C@H](CC(=O)O)NC(=O)[C@H](CO)NC(=O)[C@@H](NC(=O)[C@H](Cc1ccccc1)NC(=O)[C@@H](NC(=O)CNC(=O)[C@H](CCC(=O)O)NC(=O)[C@@H](C)NC(=O)[C@@H](N)Cc1ccc(O)cc1)[C@@H](C)O)[C@@H](C)CC)C(=O)N[C@@H](CC(C)C)C(=O)N[C@@H](CC(C)C)C(=O)N[C@@H](CC(=O)O)C(=O)N[C@@H](CCCCN)C(=O)N[C@@H](CCCCNC(=O)COCCOCCNC(=O)COCCOCCNC(=O)CC[C@H](NC(=O)CCCCCCCCCCCCCCCCCCC(=O)O)C(=O)O)C(=O)N[C@@H](C)C(=O)N[C@@H](CCC(N)=O)C(=O)N[C@@H](CCC(N)=O)C(=O)N[C@@H](CC(=O)O)C(=O)N[C@@H](Cc1ccccc1)C(=O)N[C@H](C(=O)N[C@@H](CC(N)=O)C(=O)N[C@@H](Cc1c[nH]c2ccccc12)C(=O)N[C@@H](CC(C)C)C(=O)N[C@@H](CC(C)C)C(=O)N[C@@H](C)C(=O)N[C@@H](CCC(N)=O)C(=O)NCC(=O)N1CCC[C@H]1C(=O)N[C@@H](CO)C(=O)N[C@@H](CO)C(=O)NCC(=O)N[C@@H](C)C(=O)N1CCC[C@H]1C(=O)N1CCC[C@H]1C(=O)N1CCC[C@H]1C(=O)N[C@@H](CO)C(N)=O)C(C)C
# B5: Example 10 (peptide)
# peptide: Y[dA]EGTFISDYSILLDKK([AEEA-AEEA-γGlu-C20 diacid])HQQDFVNWLLAGGPSSGAPPPS-NH2
# modifications: N-terminus assumed
# SMILES: CC[C@H](C)[C@H](NC(=O)[C@H](CO)NC(=O)[C@H](Cc1ccc(O)cc1)NC(=O)[C@H](CC(=O)O)NC(=O)[C@H](CO)NC(=O)[C@@H](NC(=O)[C@H](Cc1ccccc1)NC(=O)[C@@H](NC(=O)CNC(=O)[C@H](CCC(=O)O)NC(=O)[C@@H](C)NC(=O)[C@@H](N)Cc1ccc(O)cc1)[C@@H](C)O)[C@@H](C)CC)C(=O)N[C@@H](CC(C)C)C(=O)N[C@@H](CC(C)C)C(=O)N[C@@H](CC(=O)O)C(=O)N[C@@H](CCCCN)C(=O)N[C@@H](CCCCNC(=O)COCCOCCNC(=O)COCCOCCNC(=O)CC[C@H](NC(=O)CCCCCCCCCCCCCCCCCCC(=O)O)C(=O)O)C(=O)N[C@@H](Cc1c[nH]cn1)C(=O)N[C@@H](CCC(N)=O)C(=O)N[C@@H](CCC(N)=O)C(=O)N[C@@H](CC(=O)O)C(=O)N[C@@H](Cc1ccccc1)C(=O)N[C@H](C(=O)N[C@@H](CC(N)=O)C(=O)N[C@@H](Cc1c[nH]c2ccccc12)C(=O)N[C@@H](CC(C)C)C(=O)N[C@@H](CC(C)C)C(=O)N[C@@H](C)C(=O)NCC(=O)NCC(=O)N1CCC[C@H]1C(=O)N[C@@H](CO)C(=O)N[C@@H](CO)C(=O)NCC(=O)N[C@@H](C)C(=O)N1CCC[C@H]1C(=O)N1CCC[C@H]1C(=O)N1CCC[C@H]1C(=O)N[C@@H](CO)C(N)=O)C(C)C
# B6: Example 8 (peptide)
# peptide: Y[Aib]EGTFISDYSILLDKK([AEEA-AEEA-γGlu-C20 diacid])AQ[Aib]DFVNWLLAQGPSSGAPPPS-NH2
# modifications: N-terminus assumed
# SMILES: CC[C@H](C)[C@H](NC(=O)[C@H](CO)NC(=O)[C@H](Cc1ccc(O)cc1)NC(=O)[C@H](CC(=O)O)NC(=O)[C@H](CO)NC(=O)[C@@H](NC(=O)[C@H](Cc1ccccc1)NC(=O)[C@@H](NC(=O)CNC(=O)[C@H](CCC(=O)O)NC(=O)C(C)(C)NC(=O)[C@@H](N)Cc1ccc(O)cc1)[C@@H](C)O)[C@@H](C)CC)C(=O)N[C@@H](CC(C)C)C(=O)N[C@@H](CC(C)C)C(=O)N[C@@H](CC(=O)O)C(=O)N[C@@H](CCCCN)C(=O)N[C@@H](CCCCNC(=O)COCCOCCNC(=O)COCCOCCNC(=O)CC[C@H](NC(=O)CCCCCCCCCCCCCCCCCCC(=O)O)C(=O)O)C(=O)N[C@@H](C)C(=O)N[C@@H](CCC(N)=O)C(=O)NC(C)(C)C(=O)N[C@@H](CC(=O)O)C(=O)N[C@@H](Cc1ccccc1)C(=O)N[C@H](C(=O)N[C@@H](CC(N)=O)C(=O)N[C@@H](Cc1c[nH]c2ccccc12)C(=O)N[C@@H](CC(C)C)C(=O)N[C@@H](CC(C)C)C(=O)N[C@@H](C)C(=O)N[C@@H](CCC(N)=O)C(=O)NCC(=O)N1CCC[C@H]1C(=O)N[C@@H](CO)C(=O)N[C@@H](CO)C(=O)NCC(=O)N[C@@H](C)C(=O)N1CCC[C@H]1C(=O)N1CCC[C@H]1C(=O)N1CCC[C@H]1C(=O)N[C@@H](CO)C(N)=O)C(C)C
# B7: Example 3 (peptide)
# peptide: Y[Aib]EGTFISDYSI[αMeL]LDKK([AEEA-AEEA-γGlu-C20 diacid])HQ[Aib]DFVE[4Pal]LLEAGPSSGAPPPS-NH2
# modifications: N-terminus assumed
# SMILES: CC[C@H](C)[C@H](NC(=O)[C@H](Cc1ccccc1)NC(=O)[C@@H](NC(=O)CNC(=O)[C@H](CCC(=O)O)NC(=O)C(C)(C)NC(=O)[C@@H](N)Cc1ccc(O)cc1)[C@@H](C)O)C(=O)N[C@@H](CO)C(=O)N[C@@H](CC(=O)O)C(=O)N[C@@H](Cc1ccc(O)cc1)C(=O)N[C@@H](CO)C(=O)N[C@H](C(=O)N[C@@](C)(CC(C)C)C(=O)N[C@@H](CC(C)C)C(=O)N[C@@H](CC(=O)O)C(=O)N[C@@H](CCCCN)C(=O)N[C@@H](CCCCNC(=O)COCCOCCNC(=O)COCCOCCNC(=O)CC[C@H](NC(=O)CCCCCCCCCCCCCCCCCCC(=O)O)C(=O)O)C(=O)N[C@@H](Cc1c[nH]cn1)C(=O)N[C@@H](CCC(N)=O)C(=O)NC(C)(C)C(=O)N[C@@H](CC(=O)O)C(=O)N[C@@H](Cc1ccccc1)C(=O)N[C@H](C(=O)N[C@@H](CCC(=O)O)C(=O)N[C@@H](Cc1ccncc1)C(=O)N[C@@H](CC(C)C)C(=O)N[C@@H](CC(C)C)C(=O)N[C@@H](CCC(=O)O)C(=O)N[C@@H](C)C(=O)NCC(=O)N1CCC[C@H]1C(=O)N[C@@H](CO)C(=O)N[C@@H](CO)C(=O)NCC(=O)N[C@@H](C)C(=O)N1CCC[C@H]1C(=O)N1CCC[C@H]1C(=O)N1CCC[C@H]1C(=O)N[C@@H](CO)C(N)=O)C(C)C)[C@@H](C)CC
# B8: GIP(1-42)-NH2 (ligand)
# peptide: YAEGTFISDYSIAMDKIHQQDFVNWLLAQKGKKNDWKHNITQ-NH2
# Target: human GLP-1 receptor (human, UniProt P43220 24-463)
# Test: cell-based or functional assay
row,Binder,hGLP1R cAMP Rel EC50 [nM]
1,B1,> 5000
2,B2,> 100
3,B3,> 5000
4,B4,> 100
5,B5,> 100
6,B6,> 5000
7,B7,> 5000

# Target: T1, human glucose-dependent insulinotropic …
# Test: cell-based or functional assay
row,Binder,hGIPR cAMP Rel EC50 [nM]
1,B1,0.0476
2,B2,0.165
3,B3,0.0123
4,B4,0.0738
5,B5,0.611
6,B6,0.0268
7,B7,0.0178

# Target: human glucagon receptor (human, UniProt P47871 26-477)
# Test: cell-based or functional assay
# Chain of human glucagon receptor (P47871 26-477): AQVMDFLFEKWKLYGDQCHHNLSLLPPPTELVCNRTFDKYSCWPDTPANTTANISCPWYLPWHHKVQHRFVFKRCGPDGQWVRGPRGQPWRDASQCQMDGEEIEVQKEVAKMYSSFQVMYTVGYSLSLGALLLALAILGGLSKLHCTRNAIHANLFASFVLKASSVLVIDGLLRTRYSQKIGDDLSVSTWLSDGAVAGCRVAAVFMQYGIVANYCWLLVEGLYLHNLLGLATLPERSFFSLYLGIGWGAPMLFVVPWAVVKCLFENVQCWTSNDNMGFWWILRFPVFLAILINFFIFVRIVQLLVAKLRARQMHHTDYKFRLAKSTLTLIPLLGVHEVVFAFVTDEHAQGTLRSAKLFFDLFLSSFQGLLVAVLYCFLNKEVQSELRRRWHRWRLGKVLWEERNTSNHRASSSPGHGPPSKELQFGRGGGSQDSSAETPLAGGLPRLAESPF
row,Binder,hGcgR cAMP Rel EC50 [nM]
1,B1,575
2,B2,> 5000
3,B3,608
4,B4,445
5,B5,> 5000
6,B8,> 5000
7,B6,295
8,B7,1250
